Read-outs that look alike come from different tables or passages of the source.
What was measured:
Dis3L2 wild type [1] = target: T1, Dis3L2 wild type (mouse, UniProt Q8CI75 1-870); assay: filter binding
T1 sequence: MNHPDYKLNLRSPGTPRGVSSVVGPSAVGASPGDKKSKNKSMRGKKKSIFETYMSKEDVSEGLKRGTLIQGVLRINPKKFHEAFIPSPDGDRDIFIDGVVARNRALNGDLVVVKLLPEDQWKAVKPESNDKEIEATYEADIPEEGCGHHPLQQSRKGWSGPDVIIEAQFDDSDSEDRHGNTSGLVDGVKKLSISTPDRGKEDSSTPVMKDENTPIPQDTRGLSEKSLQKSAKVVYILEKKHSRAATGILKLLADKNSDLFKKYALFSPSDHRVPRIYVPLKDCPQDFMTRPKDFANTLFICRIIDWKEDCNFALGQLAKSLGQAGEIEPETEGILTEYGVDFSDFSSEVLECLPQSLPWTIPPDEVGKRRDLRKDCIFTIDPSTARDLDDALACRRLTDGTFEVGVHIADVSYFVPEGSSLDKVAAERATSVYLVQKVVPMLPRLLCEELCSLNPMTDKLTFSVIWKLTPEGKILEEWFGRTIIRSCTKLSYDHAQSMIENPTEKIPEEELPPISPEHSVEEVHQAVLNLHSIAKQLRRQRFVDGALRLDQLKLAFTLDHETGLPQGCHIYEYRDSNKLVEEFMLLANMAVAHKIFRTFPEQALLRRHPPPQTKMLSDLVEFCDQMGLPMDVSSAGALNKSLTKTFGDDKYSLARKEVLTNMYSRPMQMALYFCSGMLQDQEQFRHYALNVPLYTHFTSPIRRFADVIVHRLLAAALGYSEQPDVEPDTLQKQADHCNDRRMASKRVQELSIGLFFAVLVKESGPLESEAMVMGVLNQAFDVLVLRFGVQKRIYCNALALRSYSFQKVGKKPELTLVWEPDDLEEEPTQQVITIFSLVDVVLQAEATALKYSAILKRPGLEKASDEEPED

Dis3L2 wild type [2] = target: T1, Dis3L2 wild type; assay: filter binding; remark: listed apart in the source
Dis3L2 wild type [3] = target: T1, Dis3L2 wild type; assay: filter binding; remark: listed apart in the source
[4] = target: T2, Dis3L2 truncated D389N (crystal construct) (mouse, UniProt Q8CI75 37-857, D389N;del148-169;del194-221); assay: X-ray crystallography
T2 sequence: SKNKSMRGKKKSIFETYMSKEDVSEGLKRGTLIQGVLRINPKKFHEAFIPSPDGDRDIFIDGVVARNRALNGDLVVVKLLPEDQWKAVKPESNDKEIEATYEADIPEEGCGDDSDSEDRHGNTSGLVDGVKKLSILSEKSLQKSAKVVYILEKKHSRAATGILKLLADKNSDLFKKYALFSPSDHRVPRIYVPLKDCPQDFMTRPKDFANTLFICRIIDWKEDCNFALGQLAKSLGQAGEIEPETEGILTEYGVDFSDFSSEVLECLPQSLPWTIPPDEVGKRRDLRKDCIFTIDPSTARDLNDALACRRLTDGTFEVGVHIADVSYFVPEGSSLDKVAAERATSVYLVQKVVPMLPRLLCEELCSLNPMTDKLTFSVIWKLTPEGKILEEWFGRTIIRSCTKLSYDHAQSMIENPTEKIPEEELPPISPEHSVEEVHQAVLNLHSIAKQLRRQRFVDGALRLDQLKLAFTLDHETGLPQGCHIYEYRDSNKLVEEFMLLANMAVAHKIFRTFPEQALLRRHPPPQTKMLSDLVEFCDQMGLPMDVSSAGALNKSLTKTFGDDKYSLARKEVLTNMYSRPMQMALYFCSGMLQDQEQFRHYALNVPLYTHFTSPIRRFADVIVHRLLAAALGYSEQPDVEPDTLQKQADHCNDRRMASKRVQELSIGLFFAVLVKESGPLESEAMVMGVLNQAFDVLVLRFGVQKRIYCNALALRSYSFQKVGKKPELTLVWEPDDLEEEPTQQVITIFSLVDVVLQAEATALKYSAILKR

Dis3L2 wild type [5] = target: T1, Dis3L2 wild type; assay: filter binding; remark: listed apart in the source

B1: pre-let-7 (pre-let7a1) (structured_RNA)
RNA: UGAGGUAGUAGGUUGUAUAGUUUUAGGGUCACACCCACCACUGGGAGAUAACUAUACAAUCUACUGUCUUUC
For B1, the binding signal (Dis3L2 wild type [1]) was 10 fold weaker than pre-let-7-U15.

UUUUUUUUUUUUUUU (ssDNA, 2'-deoxyuridine at all positions) [deoxyU15]: binds (Dis3L2 wild type [2]).

In the case of AAAAAAAAAAAAAAA (ssRNA) [A15], the binding signal (Dis3L2 wild type [3]) is reported as greater than 200 fold weaker than U15.

UUUUUUUUUUUUU (ssRNA) [U13]: binds [4].

Binder CCCCCCCCCCCCCCC (ssRNA) [C15] has a binding signal (Dis3L2 wild type [3]) greater than 200 fold weaker than U15.

UUUUUUUUUUUUUUU (ssRNA) [U15]: binds (Dis3L2 wild type [5]).

Reference: paper PMC4192074
